Target: MS2-Biotin, biotinylated single-chain MS2 coat protein dimer with an AviTag in a surface loop of the second monomer (bacteriophage MS2)
Assay: SEC

stoichiometry N (streptavidin molecules per VLP): 72
Substance: streptavidin (from UniProt P22629 25-183) (natural protein)
